Assay results taken from publication PMC5383425, “Differential CLE peptide perception by plant receptors implicated from structural and functional analyses of TDIF-TDR interactions” (PLoS ONE, 2017).
Substitutions are numbered along the chain they refer to. Square brackets hold non-standard residues; d marks the D form. Ends that are not written are not given here. Hyp = O=C(O)[C@@H]1C[C@@H](O)CN1

What was measured:
Test in all cases: ITC; 0.5–1 mM peptide titrated into 10–40 μM ecdTDR; 25°C; 10 mM sodium citrate, 100 mM NaCl, pH 5.5; fitted to one set of binding sites; MicroCal Auto-iTC200
Conditions in all cases: both partners purified
ecdTDR Y188A mutant = target: T1, ecdTDR Y188A mutant (Arabidopsis thaliana, UniProt Q9FII5 30-642, Y188A)
T1 construct: TDR/PXY of A. thaliana, extracellular domain, residues 30-642; source: High Five insect cells (baculovirus), secreted, purified as the wild type (Ni-NTA, size-exclusion chromatography)
T1 sequence (looked up): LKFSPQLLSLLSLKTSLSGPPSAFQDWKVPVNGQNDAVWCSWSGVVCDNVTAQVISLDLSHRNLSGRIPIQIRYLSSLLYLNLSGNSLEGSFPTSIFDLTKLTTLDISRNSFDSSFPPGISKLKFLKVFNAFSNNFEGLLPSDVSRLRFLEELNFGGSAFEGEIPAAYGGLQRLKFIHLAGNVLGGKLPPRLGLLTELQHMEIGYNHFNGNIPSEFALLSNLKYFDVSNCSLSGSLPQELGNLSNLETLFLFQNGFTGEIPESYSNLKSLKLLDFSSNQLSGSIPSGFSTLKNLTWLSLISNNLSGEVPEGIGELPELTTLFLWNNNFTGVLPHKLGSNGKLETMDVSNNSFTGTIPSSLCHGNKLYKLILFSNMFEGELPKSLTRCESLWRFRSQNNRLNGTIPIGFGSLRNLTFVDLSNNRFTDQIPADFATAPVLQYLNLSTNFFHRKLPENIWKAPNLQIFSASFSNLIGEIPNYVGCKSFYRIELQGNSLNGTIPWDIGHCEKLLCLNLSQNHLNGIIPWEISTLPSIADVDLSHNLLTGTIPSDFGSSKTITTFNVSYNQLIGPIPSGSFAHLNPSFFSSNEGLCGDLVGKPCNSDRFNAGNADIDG

ecdTDR E231A mutant = target: T2, ecdTDR E231A mutant (Arabidopsis thaliana, UniProt Q9FII5 30-642, E231A)
T2 construct: TDR/PXY of A. thaliana, extracellular domain, residues 30-642; source: High Five insect cells (baculovirus), secreted, purified as the wild type (Ni-NTA, size-exclusion chromatography)
T2 sequence (looked up): T1 sequence (looked up) with A159Y, E202A

[1] = target: T3, ecdTDR Y234 alanine mutant (Arabidopsis thaliana, UniProt Q9FII5 30-642, alanine substitution of Y234)
T3 construct: TDR/PXY of A. thaliana, extracellular domain, residues 30-642; The text says only 'mutational analyses' of Y234; source: High Five insect cells (baculovirus), secreted, purified as the wild type (Ni-NTA, size-exclusion chromatography)
T3 sequence (looked up): T1 sequence (looked up) with A159Y, Y205A

Measured: binding result

B1: Tracheary Element Differentiation Inhibitory Factor (TDIF) peptide (peptide)
peptide: HEV[Hyp]SG[Hyp]NPISN
notes: TDIF, the 12-residue CLE peptide processed from CLE41 and CLE44 of A. thaliana; printed as HEV(Hyp)SG(Hyp)NPISN; numbers count on: the 12-residue peptide; CLE44 encodes the same peptide; also called wild type TDIF; wtTDIF; source: synthetic peptide (peptide 2.0)
binds: ecdTDR Y188A mutant | ecdTDR E231A mutant | [1]
